Reference: patent publication US20200024335A1 (BERG, published 2020)

T1: E. coli-expressed partial FLNB (aa1416-2089), Filamin B immunogen (human, UniProt O75369 1416-2089)
T1 construct: covers filamin repeats 13-19; also called partial FLNB protein
T1 sequence: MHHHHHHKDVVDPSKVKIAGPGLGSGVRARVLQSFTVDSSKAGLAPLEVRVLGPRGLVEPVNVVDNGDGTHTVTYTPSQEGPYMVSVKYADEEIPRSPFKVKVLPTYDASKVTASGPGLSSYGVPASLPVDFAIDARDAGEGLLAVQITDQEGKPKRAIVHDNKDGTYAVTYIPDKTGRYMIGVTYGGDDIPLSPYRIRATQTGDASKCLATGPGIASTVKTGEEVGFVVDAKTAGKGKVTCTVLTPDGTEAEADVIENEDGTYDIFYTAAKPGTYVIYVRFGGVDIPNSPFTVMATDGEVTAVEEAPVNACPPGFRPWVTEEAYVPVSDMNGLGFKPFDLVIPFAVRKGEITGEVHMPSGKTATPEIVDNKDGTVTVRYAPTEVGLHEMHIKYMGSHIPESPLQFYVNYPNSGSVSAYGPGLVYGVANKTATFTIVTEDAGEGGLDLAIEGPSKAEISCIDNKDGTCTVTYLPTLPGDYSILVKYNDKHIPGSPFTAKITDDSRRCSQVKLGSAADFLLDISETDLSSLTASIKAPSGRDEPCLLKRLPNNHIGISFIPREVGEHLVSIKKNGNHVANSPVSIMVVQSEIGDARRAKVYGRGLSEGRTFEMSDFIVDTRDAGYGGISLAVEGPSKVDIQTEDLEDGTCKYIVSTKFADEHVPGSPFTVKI

T2: E. coli-expressed partial FLNA (aa1443-2131) (Homo sapiens (Human), UniProt P21333 1443-2131)
T2 construct: Covers the same region as FLNB aa1416-2089; also called Partial Filamin A (aa 1443-2131)
T2 sequence: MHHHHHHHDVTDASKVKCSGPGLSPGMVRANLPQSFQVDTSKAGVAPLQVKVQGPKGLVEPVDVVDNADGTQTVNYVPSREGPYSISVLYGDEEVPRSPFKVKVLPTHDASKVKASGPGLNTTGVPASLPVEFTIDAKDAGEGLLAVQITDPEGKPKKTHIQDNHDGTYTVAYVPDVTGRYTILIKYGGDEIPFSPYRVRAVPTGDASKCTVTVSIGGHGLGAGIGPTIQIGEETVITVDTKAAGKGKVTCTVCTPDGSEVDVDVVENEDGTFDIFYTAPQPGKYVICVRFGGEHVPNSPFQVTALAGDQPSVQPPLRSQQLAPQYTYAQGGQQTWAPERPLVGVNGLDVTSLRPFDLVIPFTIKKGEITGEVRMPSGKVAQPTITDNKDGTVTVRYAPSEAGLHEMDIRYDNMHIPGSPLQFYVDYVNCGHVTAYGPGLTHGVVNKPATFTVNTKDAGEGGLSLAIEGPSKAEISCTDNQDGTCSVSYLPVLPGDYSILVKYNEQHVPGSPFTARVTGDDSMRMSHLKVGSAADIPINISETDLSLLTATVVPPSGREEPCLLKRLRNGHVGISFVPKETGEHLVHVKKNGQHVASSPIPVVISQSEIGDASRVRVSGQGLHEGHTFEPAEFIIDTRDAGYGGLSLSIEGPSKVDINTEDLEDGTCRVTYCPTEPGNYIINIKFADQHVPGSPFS

T3: E. coli-expressed partial FLNC (aa 1438-2128) (Homo sapiens (Human), UniProt Q14315 1438-2128)
T3 construct: Covers the same region as FLNB aa1416-2089; also called Partial Filamin C (aa 1438-2128)
T3 sequence: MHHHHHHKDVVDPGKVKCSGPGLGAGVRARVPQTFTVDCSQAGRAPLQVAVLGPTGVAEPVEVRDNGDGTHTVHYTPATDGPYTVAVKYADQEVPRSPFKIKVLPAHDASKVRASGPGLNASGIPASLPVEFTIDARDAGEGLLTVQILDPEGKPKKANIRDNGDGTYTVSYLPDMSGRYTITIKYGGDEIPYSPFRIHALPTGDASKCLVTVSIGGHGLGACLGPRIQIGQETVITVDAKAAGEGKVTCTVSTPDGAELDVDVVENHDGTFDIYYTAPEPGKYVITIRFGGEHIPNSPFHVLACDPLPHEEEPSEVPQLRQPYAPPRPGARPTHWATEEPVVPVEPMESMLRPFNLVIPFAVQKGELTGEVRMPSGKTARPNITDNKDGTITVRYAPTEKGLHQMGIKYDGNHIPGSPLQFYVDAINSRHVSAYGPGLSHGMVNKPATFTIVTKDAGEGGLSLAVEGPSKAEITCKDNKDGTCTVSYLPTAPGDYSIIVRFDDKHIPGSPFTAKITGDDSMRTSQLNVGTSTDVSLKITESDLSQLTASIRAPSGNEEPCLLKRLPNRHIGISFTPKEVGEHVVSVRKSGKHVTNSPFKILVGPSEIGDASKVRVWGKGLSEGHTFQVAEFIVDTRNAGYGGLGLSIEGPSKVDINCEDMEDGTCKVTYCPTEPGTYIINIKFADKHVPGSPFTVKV


Assays:
[1] = molecular target: E. coli-expressed partial FLNA (aa1443-2131) (Homo sapiens (Human)) (UniProt P21333); assay: ELISA, coated protein, negative control
[2] = molecular target: E. coli-expressed partial FLNB (aa1416-2089), Filamin B immunogen (human) (UniProt O75369); assay: ELISA, coated protein, negative control
[3] = molecular target: E. coli-expressed partial FLNC (aa 1438-2128) (Homo sapiens (Human)) (UniProt Q14315); assay: ELISA, coated protein, negative control
[4] = molecular target: HEK293-expressed full length FLNA (Homo sapiens (Human)) (UniProt P21333); assay: ELISA, coated protein, negative control
[5] = molecular target: T4, HEK293-expressed full length FLNB (human, UniProt O75369 2-2601); assay: ELISA, coated protein, negative control
T4 construct: prepared by GenScript; also called full length human FLN-B protein
T4 sequence (O75369 other isoform, or with tags, fused parts or gaps): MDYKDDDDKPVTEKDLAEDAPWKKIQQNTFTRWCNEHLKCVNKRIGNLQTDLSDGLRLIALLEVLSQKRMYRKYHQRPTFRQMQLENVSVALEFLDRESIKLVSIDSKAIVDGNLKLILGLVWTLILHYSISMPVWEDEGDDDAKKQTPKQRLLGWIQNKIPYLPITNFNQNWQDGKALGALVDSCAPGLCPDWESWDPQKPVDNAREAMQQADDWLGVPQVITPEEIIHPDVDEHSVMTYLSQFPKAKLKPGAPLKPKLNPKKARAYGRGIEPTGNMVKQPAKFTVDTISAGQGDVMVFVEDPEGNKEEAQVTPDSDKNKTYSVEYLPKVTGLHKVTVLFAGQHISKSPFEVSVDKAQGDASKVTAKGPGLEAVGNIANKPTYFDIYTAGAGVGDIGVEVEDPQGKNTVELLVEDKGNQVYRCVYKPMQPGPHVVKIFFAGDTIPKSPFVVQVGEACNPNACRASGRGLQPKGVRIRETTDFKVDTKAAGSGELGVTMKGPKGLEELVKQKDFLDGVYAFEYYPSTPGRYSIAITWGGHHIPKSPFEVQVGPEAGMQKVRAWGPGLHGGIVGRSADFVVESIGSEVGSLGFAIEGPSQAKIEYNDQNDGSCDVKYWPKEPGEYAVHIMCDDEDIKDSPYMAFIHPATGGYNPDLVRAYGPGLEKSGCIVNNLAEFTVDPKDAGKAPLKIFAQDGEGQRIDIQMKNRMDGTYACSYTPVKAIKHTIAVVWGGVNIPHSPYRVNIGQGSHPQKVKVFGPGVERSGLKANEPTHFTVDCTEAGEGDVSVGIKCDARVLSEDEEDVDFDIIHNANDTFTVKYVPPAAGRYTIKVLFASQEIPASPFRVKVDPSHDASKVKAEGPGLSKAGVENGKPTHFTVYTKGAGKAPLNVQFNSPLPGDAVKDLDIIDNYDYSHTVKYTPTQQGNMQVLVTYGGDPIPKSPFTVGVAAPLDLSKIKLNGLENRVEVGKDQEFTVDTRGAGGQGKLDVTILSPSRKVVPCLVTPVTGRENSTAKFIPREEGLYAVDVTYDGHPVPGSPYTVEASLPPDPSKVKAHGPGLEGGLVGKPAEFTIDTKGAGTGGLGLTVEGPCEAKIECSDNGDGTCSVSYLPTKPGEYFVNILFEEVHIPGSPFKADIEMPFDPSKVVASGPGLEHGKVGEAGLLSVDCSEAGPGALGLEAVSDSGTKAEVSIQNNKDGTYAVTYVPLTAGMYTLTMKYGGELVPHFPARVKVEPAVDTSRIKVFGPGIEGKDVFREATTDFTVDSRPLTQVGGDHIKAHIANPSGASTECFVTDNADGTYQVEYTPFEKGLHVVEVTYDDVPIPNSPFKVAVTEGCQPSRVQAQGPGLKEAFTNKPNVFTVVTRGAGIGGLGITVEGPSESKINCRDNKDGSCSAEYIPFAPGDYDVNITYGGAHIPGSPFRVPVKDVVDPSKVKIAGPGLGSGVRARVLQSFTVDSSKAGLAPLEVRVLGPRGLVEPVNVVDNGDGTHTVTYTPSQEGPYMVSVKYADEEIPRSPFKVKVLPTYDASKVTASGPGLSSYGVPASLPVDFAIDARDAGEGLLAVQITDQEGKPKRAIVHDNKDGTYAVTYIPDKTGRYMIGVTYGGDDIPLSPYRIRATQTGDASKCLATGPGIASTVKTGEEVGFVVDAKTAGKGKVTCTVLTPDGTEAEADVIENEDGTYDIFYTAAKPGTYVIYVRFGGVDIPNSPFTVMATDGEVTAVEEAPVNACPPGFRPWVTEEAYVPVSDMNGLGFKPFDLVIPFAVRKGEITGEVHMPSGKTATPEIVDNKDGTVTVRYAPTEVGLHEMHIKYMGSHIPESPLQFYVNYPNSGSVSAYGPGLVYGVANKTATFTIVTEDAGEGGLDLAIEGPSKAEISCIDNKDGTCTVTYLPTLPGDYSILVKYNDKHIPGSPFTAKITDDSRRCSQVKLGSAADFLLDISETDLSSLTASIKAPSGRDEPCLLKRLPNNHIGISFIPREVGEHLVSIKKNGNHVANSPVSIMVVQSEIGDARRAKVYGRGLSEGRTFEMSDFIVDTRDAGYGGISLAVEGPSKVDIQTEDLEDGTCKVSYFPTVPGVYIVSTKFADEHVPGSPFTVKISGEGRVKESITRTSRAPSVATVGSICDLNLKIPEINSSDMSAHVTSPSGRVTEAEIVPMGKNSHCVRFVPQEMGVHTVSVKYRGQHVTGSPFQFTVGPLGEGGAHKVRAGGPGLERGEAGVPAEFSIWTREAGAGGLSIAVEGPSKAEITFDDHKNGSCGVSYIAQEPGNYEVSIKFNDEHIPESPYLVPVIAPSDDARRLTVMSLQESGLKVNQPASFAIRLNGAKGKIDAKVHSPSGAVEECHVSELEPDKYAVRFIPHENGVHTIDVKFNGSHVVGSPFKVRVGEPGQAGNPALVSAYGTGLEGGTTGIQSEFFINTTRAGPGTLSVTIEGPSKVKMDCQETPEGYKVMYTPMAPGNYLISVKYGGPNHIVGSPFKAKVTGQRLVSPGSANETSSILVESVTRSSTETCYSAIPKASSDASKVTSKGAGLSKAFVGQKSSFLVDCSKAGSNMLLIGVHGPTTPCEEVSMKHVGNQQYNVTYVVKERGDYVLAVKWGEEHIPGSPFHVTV

[6] = molecular target: HEK293-expressed full length FLNA (Homo sapiens (Human)) (UniProt P21333); assay: ELISA, coated protein, hybridoma supernatant
[7] = molecular target: 10% pooled normal human serum; assay: ELISA, coated 10% serum, hybridoma supernatant
[8] = molecular target: T1, E. coli-expressed partial FLNB …; assay: ELISA, coated protein, hybridoma supernatant
Description: (§1) Filamin A (FLNA) and Filamin C (FLNC) are the other two members in the Filamin family; they share 69% and 61% identity to FLNB, respectively. The clones were screened for negative with E. coli-expressed partial FLNA (aa1443-2131) and E. coli-expressed FLNC (aa 1438-2128) which cover the same region as FLN-B (aa1416-2089), and HEK293-expressed full length FLNA. 10% human serum was further tested for any unexpected cross-reactivity. The Partial FLNA (aa 1443-2131) protein sequence is shown in SEQ ID NO: 32. Partial FLNC (aa 1438-2128) protein sequence is shown in SEQ ID NO: 33. Full length FLNA protein sequence is shown in SEQ ID NO: 34.
(§2) Next, the proteins were coated and tested for supernatants from clones 3F10 and 5H7 by ELISA. […] FLNB proteins were tested for specificity, while homologous proteins FLNA and FLNC from the same family were tested for any cross-reactivity. 10% pooled normal human serum was also included for any unexpected non-specific binding.

[9] = molecular target: T4, HEK293-expressed full length FLNB; assay: ELISA, coated protein, hybridoma supernatant
Description: as §1, §2

[10] = molecular target: T2, E. coli-expressed partial FLNA …; assay: ELISA, coated protein, hybridoma supernatant
Description: as §1, §2

[11] = molecular target: T3, E. coli-expressed partial FLNC (aa …); assay: ELISA, coated protein, hybridoma supernatant
Description: as §1, §2

[12] = molecular target: T4, HEK293-expressed full length FLNB; assay: BLI (Octet), antibody on anti-mIgG Fc capture sensor, FLNB 25 nM
[13] = molecular target: T5, HEK293-expressed full length FLNA (Homo sapiens (Human), UniProt P21333 2-2647); assay: ELISA, coated protein, hybridoma supernatant
T5 construct: also called Full length Filamin A
Description: as §1, §2

| ELISA test result [1] | ELISA test result [2] | ELISA test result [3] | ELISA test result [4] | ELISA test result [5] | ELISA test result [6] | ELISA test result [7] | ELISA test result [8] | ELISA test result [9] | ELISA test result [10] | binding result [10] | ELISA test result [11] | binding result [11] | Kd [12] [pM] | koff [12] [s⁻¹] | kon [12] [M⁻¹ s⁻¹] | ELISA test result [13] | binding result [13] | Molecule |
| --- | --- | --- | --- | --- | --- | --- | --- | --- | --- | --- | --- | --- | --- | --- | --- | --- | --- | --- |
| 0.05 | 0.04 | 0.05 | 0.073 | 0.06 | – | – | – | – | – | – | – | – | – | – | – | – | – | Neg ctl (negative control of the specificity ELISA) |
| – | – | – | – | – | 0.191 | 0.123 | 3.48 | 3.49 | 0.05 | no binding | 0.05 | no binding | < 1 | < 1e-07 | 250000 | – | – | 5H7 murine monoclonal anti-FLNB antibody (antibody, IgG2b, V domains shown, also called clone 5H7; biotin-linked monoclonal antibody specific for FLNB (5H7)) VH: DVQLQESGPGLVKPSQSLSLTCSVTGYSITSGYYWNWIRQFPGNKLEWMGYISYDGSNNYNPSLKNRISITRDTSKNQFFLRLNSVTTEDTATYYCARETWASFDYWGQGTTLTVSS VL: DIVMTQSQKFMSTTVGDRVGITCKASQNVGIAVAWYQQKPGQSPRLLIYSASYRYTGVPDRFSGSGSGTDFTLTINNMQSEDLADYFCQQYSSYPLTFGSGTKLEIK |
| – | – | – | – | – | – | 0.048 | 3.87 | 2.36 | 0.05 | no binding | 0.06 | no binding | < 1 | < 1e-07 | 270000 | 0.076 | no binding | 3F10 murine monoclonal anti-FLNB antibody (antibody, V domains shown, Tested as hybridoma supernatant or purified antibody; also called clone 3F10; anti-FLNB antibody (3F10)) VH: QVQLQQPGAELVKPGASVKLSCKASGYTFTSYWMHWVKQRPGQGLEWIGMIHPNSGSTNYNEKFKSKATLTVDKSSSTAYMQLSSLTSEDSAVYYCAIYGSGPWFAYWGQGTLVTVSA VL: DIQMTQSPASLSASVGETVTITCRASENIYSSLAWYQQKQGKSPQLLVYYAKTLAEGVPSRFSGSGSGTQFSLKINRLQPEDFGSYYCQHHYGSPLTFGAGTKLELK |
